The record followed here is US20040053865A1 (UNITED STATES OF AMERICA AS REPRESENTED BY THE SECRETARY OF …, published 2004).

Assay [1] has as its target T1, Ebola Sudan (Boniface) virus glycoprotein (GP) (Ebola virus, Sudan strain (isolate …, UniProt Q66814 33-676)).
T1 sequence: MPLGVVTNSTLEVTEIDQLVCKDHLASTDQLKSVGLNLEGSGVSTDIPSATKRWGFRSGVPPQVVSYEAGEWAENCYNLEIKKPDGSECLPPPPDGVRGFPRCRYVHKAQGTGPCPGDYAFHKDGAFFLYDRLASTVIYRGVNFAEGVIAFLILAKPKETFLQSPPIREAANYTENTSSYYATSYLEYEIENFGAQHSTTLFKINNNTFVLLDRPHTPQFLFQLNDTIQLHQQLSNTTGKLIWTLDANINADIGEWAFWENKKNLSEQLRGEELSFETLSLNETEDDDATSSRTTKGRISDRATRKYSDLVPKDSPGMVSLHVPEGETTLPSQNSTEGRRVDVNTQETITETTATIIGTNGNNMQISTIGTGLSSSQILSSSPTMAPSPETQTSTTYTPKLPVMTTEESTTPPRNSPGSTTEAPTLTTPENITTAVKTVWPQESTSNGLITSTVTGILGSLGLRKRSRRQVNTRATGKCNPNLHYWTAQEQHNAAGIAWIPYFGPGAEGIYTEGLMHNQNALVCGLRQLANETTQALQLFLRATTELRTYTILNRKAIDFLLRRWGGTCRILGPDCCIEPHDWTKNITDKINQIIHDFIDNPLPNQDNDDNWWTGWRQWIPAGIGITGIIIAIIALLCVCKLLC
As to the kind of experiment: ELISA on irradiated sucrose-purified virions. In general terms: ELISA stands for enzyme-linked immunosorbent assay.

Assay [2] addresses T2, Ebola Ivory Coast virus glycoprotein (GP) (Ebola virus, Ivory Coast strain, UniProt Q66810 33-676).
T2 sequence: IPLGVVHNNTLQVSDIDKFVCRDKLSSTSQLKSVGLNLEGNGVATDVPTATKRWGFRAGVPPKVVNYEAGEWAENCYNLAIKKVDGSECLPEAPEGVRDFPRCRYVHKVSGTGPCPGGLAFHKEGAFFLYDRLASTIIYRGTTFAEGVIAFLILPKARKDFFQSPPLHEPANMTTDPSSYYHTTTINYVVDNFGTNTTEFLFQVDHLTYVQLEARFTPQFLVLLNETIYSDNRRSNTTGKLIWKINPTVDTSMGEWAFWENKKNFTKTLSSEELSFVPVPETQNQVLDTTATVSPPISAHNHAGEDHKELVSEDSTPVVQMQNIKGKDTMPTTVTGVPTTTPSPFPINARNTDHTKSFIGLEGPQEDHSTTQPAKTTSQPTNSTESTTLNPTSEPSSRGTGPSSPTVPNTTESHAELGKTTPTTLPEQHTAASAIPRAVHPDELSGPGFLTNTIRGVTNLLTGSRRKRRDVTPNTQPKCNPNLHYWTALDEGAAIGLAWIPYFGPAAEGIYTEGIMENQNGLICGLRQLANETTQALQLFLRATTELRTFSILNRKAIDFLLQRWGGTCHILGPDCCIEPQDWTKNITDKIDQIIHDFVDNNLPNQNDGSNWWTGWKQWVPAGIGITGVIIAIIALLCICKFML
The assay is described as follows: ELISA on irradiated sucrose-purified virions.

Assay [3] concerns the target T3, sGP (secreted glycoprotein) from EboGP-VRP-infected cells (Ebola virus, Zaire strain, Mayinga …, UniProt P60170 33-324).
T3 sequence: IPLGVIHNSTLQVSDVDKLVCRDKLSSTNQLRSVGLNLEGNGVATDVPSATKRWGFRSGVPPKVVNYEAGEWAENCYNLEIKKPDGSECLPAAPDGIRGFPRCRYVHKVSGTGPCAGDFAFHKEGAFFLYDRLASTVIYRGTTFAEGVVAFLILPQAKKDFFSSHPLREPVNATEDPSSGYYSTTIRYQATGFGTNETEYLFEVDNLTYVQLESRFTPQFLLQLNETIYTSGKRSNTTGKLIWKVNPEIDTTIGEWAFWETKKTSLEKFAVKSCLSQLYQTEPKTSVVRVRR
As to the kind of experiment: radioimmunoprecipitation from infected-cell supernatants.

In assay [4] the target is T4, Ebola Zaire 1976 (Mayinga isolate) virus glycoprotein (GP) (Ebola virus, Zaire 1976 strain (isolate …, UniProt Q05320 33-676)).
T4 sequence: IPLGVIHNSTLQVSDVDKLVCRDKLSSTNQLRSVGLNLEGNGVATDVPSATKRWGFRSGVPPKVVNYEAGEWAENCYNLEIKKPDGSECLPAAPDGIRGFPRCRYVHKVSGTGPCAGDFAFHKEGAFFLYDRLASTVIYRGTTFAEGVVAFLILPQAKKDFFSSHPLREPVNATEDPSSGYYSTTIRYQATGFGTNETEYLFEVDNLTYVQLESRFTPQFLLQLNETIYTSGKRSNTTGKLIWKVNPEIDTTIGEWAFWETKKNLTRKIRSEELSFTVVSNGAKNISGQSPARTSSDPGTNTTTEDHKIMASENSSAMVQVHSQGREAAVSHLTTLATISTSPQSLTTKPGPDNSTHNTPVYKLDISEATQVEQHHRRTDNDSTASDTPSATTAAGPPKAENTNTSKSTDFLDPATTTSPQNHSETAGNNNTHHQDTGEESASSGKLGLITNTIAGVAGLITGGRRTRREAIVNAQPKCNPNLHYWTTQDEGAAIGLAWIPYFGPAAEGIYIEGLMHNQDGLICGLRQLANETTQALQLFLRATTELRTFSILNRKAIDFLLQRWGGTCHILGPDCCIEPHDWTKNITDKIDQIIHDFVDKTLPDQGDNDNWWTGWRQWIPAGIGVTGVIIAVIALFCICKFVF
The assay is described as follows: ELISA on virions.

B1: MAb EGP 6D8-1-2 (antibody, V domains shown)
VH: DVKLLESGGGLVQPGGSLKLSCAASGFDFSRYWMSWVRQAPGKGLEWIGEINPDSSTINYTPSLKDKFIISRDNAKNTLYLQMSKVRSEDTALYYCTRQGYGYNYWGQGTTLIVSS
VL: DVLLTQIPLSLPVSLGDQASISCRSSQSIVHSNGNTYLEWYLQKPGQSPKLLIYKASNRFSGVPDRFSGSGSGTDFTLKINRVEAEDLGVYYCLQGSHVPSTFGGGTKLEIKR
Regarding B1, the binding result in assay [1] is on record as “no binding”; in assay [2], “no binding”; in assay [3], “no binding”; in assay [4], “binds”.

B2: MAb EGP 13F6-1-2 (antibody, V domains shown)
VH: EVQVVESGGGLVKPGGSLKLSCAASGFAFSSYDMSWVRQTPEKRLEWVAYISRGGGYTYYPDTVKGRFTISRDNAKNTLYLQMSSLKSEDTAMYYCSRHIYYGSSHYYAMDYWGQGTSVTVSS
VL: QLVLTQSSSASFSLGASAKLTCTLSRQHSTYTIEWYQQQPLKPPRYVMELKKDGSHSTGDGIPDRFSGSSSGADRYLSISNIQPEDEAIYICGVGDTIKEQFVYVFGGGTKVTVLG
With B2, the binding result in assay [1], in assay [2] and in assay [3] was “no binding” throughout.
